Measurements reported in patent US20220251562, “Anti-CD3 Aptamers for Use in Cell Targeting and Labeling” (Ixaka France, published 2022).

Assays:
[1] = biological target: T1, CD3 epsilon/gamma heterodimer (Homo sapiens, UniProt P07766;P09693 P07766:23-126,P09693:23-116); assay: SPR; kinetic, DPBS; details: tags: C-terminal human IgG1 Fc fusion, AcroBiosystems; chain copies: heterodimer 1:1 (inferred); label: 5'-biotin-TEG
Protocol: (§1) Binding affinity measurements were performed using a BIAcore T200 instrument (GE Healthcare). To analyze interactions between aptamers and CD3 proteins, 1000 Resonance Units of biotinylated aptamers were immobilized on Series S Sensor chips SA (GE Healthcare) according to manufacturer's instructions (GE Healthcare). SELEX buffer was used as the running buffer. The interactions were measured in the “Single Kinetics Cycle” mode at a flow rate of 30 μl/min and by injecting different concentrations of human CD3 ε/γ, CD3 ε/δ, IgG1 Fc and mouse CD3 ε/δ (Sino Biological). The highest protein concentration used was 100 nM. Other concentrations were obtained by 3-fold dilution. All kinetic data of the interaction were evaluated using the BIAcore T200 evaluation software. Table 3 below provides a summary of KD values obtained from surface plasmon resonance measurements.
(§2) Binding of anti-CD3 RNA aptamers to each of purified recombinant human CD3 ε/γ and CD3 ε/δ proteins was measured using surface plasmon resonance. Binding studies were performed generally as described in Example 5 except that SELEX buffer was replaced by DPBS. The highest protein concentration used was 300 nM. Other concentrations were obtained by 3-fold dilution. Binding to hIgG1 Fc was used as control. Binding to murine CD3 do (mCD3 c/S) was also measured.

[2] = biological target: T2, CD3 epsilon/delta heterodimer (Homo sapiens, UniProt P07766;P04234 P07766:23-126,P04234:22-105); assay: SPR; NA, DPBS; details: tags: C-terminal human IgG1 Fc fusion, AcroBiosystems; chain copies: heterodimer 1:1 (inferred); label: 5'-biotin-TEG
Protocol: as §1, §2

IgG1 Fc (counter target) [3] = biological target: T3, IgG1 Fc (counter target) (Homo sapiens, UniProt P01857-1 P01857-1:100-330); assay: SPR; NA, DPBS; details: tags: AcroBiosystems; chain copies: 2; label: 5'-biotin-TEG
Protocol: as §1, §2

IgG1 Fc (counter target) [4] = biological target: T3, IgG1 Fc (counter target); assay: SPR; no interaction observed; printed CELTIC_CD3_22; details: tags: AcroBiosystems; chain copies: 2; label: 5'-biotin-TEG
Protocol: as §1

IgG1 Fc (counter target) [5] = biological target: T3, IgG1 Fc (counter target); assay: SPR; no interaction observed; details: tags: AcroBiosystems; chain copies: 2; label: 5'-biotin-TEG
Protocol: Binding affinity measurements with the most interesting anti-CD3 aptamers derived from the core sequence were performed using a BIAcore T200 instrument (GE Healthcare) as already described in Example 4. To analyze interactions between aptamers and CD3 proteins, biotinylated aptamers were immobilized at a lower density than in Example 4 (100-500 RU) on Series S Sensor chips SA (GE Healthcare) according to manufacturer's instructions (GE Healthcare). Mouse and Cynomolgus CD3 ε/δ were purchased from AcroBiosystems. For human proteins, the highest concentration used was 100 nM and 1 μM for mouse and cynomolgus antigens. Other concentrations were obtained by 3-fold dilutions.
Table 8 below provides a summary of KD values obtained from surface plasmon resonance measurements. […] Variants of the core sequence identified in cell binding assays (CELTIC_core_12, CELTIC_core_24, CELTIC_core_29, CELTIC_core_40 and CELTIC_core_42) were all confirmed to have better affinities than the unmodified aptamer with human CD3 ε/γ. As already observed in Example 4, the affinities were in general slightly lower with CD3 ε/δ which is a consequence of the SELEX strategy that included more rounds on the CD3 ε/γ isoform. None of these sequences did bind to the Fc region of human IgG1.

IgG1 Fc (counter target) [6] = biological target: T3, IgG1 Fc (counter target); assay: SPR; no interaction observed; details: tags: AcroBiosystems; chain copies: 2; label: 5'-biotin-TEG; remark: listed apart in the source
Protocol: as §1

[7] = biological target: T1, CD3 epsilon/gamma heterodimer; assay: SPR; steady state; kinetic 65.2 nM (Table 6); details: tags: C-terminal human IgG1 Fc fusion, AcroBiosystems; chain copies: heterodimer 1:1 (inferred); label: 5'-biotin-TEG
Protocol: as §1

[8] = biological target: T2, CD3 epsilon/delta heterodimer; assay: SPR; steady state; kinetic 3.2 uM (Table 6); details: tags: C-terminal human IgG1 Fc fusion, AcroBiosystems; chain copies: heterodimer 1:1 (inferred); label: 5'-biotin-TEG
Protocol: as §1

[9] = biological target: T2, CD3 epsilon/delta heterodimer; assay: SPR; steady state; kinetic 3.7 nM (Table 3), 9.9 nM (Table 6), 217 pM (Table 8); details: tags: C-terminal human IgG1 Fc fusion, AcroBiosystems; chain copies: heterodimer 1:1 (inferred); label: 5'-biotin-TEG
Protocol: as §1

[10] = biological target: T1, CD3 epsilon/gamma heterodimer; assay: SPR; steady state; kinetic fits 5 nM (Table 3), 5.2 nM (Table 6), 119 pM (Table 8), 156 nM steady state (Table 9); SELEX buffer Mg Ca; details: tags: C-terminal human IgG1 Fc fusion, AcroBiosystems; chain copies: heterodimer 1:1 (inferred); label: 5'-biotin-TEG
Protocol: as §1

IgG1 Fc (counter target) [11] = biological target: T3, IgG1 Fc (counter target); assay: SPR; NA, no interaction; Table 3 prints 56.3 mM; details: tags: AcroBiosystems; chain copies: 2; label: 5'-biotin-TEG
Protocol: as §1

T2 sequence (P07766 23-126, stated change not applied, chain 1 of 2): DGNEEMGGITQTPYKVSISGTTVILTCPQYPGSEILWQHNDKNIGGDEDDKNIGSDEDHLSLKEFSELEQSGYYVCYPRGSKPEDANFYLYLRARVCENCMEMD
T2 sequence (P04234 22-105, stated change not applied, chain 2 of 2): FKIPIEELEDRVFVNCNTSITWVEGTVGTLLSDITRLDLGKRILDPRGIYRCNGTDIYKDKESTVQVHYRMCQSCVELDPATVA
T1 sequence (P07766 23-126, chain 1 of 2): as the sequence (P07766 23-126, stated change not applied, chain 1 of 2) above
T1 sequence (P09693 23-116, chain 2 of 2): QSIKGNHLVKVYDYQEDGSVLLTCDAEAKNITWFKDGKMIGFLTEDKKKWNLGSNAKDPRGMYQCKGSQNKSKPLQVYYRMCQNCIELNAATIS

In the case of GAUGAUAUCUUUAAUAUCAAUUGCAGCGAUUCUUGUUUGAGAAUAAAC (ssRNA, 2'-F pyrimidines) [ARACD3-3130001], the Kd [1] is reported as 332 nM, the binding result [2] is reported as “no binding” and the binding result (IgG1 Fc (counter target) [3]) is reported as “no binding”.

CGACCACAGGGGTTTGGCTTCGGGACTGGCGGTGGGCACT (ssDNA) [CELTIC_22s]: no binding (IgG1 Fc (counter target) [4]).

GGGTTTGGCATCGGGTCTGGC (ssDNA, 5'-HEG, 3'-3' dT) [CELTIC_core_40t]: no binding (IgG1 Fc (counter target) [5]).

GAGGGGTTTGGCATCGGGCCTGGCGCCATTCAAGCTATGC (ssDNA) [CELTIC_2s] was tested, and the binding result (IgG1 Fc (counter target) [6]) was “no binding”, the Kd [7] was 627 nM and the Kd [8] was 260 nM.

TTTCCGGGTGGGGGTTTGGCACCGGGCCTGGCGCAGGGATTCG (ssDNA) [CELTIC_1s] was tested, and the Kd [9] was 125 nM, the Kd [10] was 53 nM and the binding result (IgG1 Fc (counter target) [11]) was “no binding”.
